25 molecules from US20180291110A1 (Hoffmann-La Roche, published 2018) can be followed below.

Changes are numbered by the printed parent chain.

The target in this assay is T1, human transferrin receptor (recombinant, for surface plasmon resonance) (human, UniProt P02786 89-760).
T1 construct: also called huTfR; human transferrin receptor-biotinylated
The assay can be described thus: SPR 25C.

T1 sequence (P02786 89-760 limits assumed): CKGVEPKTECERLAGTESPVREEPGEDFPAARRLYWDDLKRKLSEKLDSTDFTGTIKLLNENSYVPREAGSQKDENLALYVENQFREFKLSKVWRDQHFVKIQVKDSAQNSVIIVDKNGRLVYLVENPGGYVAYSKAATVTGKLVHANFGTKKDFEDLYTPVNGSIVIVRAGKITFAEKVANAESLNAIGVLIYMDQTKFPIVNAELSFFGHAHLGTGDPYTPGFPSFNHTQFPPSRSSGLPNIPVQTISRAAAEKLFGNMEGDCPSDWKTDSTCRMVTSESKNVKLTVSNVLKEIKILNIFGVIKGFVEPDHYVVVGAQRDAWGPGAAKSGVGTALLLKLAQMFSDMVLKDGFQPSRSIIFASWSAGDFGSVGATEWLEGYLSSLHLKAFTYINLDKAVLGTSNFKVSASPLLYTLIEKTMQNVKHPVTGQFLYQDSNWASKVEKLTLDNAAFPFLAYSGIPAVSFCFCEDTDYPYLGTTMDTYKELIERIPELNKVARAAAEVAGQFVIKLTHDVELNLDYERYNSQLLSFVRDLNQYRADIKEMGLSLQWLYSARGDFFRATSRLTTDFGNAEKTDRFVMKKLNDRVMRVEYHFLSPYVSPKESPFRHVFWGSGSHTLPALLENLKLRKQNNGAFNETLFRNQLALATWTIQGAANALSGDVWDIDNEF

B1: 2/99 VH19/VL2 (antibody, V domains shown)
VH: QSMQESGPGLVKPSQTLSLTCTVSGFSLSSYAMSWIRQHPGKGLEWIGYIWSGGSTDYAPSLKSRVTISVDTSKNQFSLKLSSVTAADTAVYYCARRYGTSYPDYGDANGFDPWGQGTLVTVSS
VL: DIQMTQSPSSLSASVGDRVTITCRASQSISSYLNWYQQKPGKAPKLLIYRASTLASGVPSRFSGSGSGTDFTLTISSLQPEDFATYYCQQSYSSSNVDNTFGGGTKVEIK
In general, koff refers to the first-order rate constant of dissociation. In the case of B1, the koff came out at 0.00769 s⁻¹.

B2: 2/99 VH16/VL3 (antibody, V domains shown)
VH: B1 VH with S2Q, M3L, Q15E, I36V, H39P, A59N, F77V, Q116P
VL: B1 VL with D1A, I2Y
As to B2, the koff turned out to be 0.00173 s⁻¹.

B3: 2/99 VH23-DANG/VL3 (antibody, V domains shown)
VH: QSMQESGPGLVKPSQTLSLTCTVSGFSLSSYAMSWIRQHPGKGLEWIGYIWSGGSTDYASWAKSRVTISKTSTTVSLKLSSVTAADTAVYYCARRYGTSYPDYGDANGFDPWGQGTLVTVSS
VL: B1 VL with D1A, I2Y
In the case of B3, the dissociation rate constant (koff) worked out at 0.000783 s⁻¹.

B4: 2/99 VH11/VL3 (antibody, V domains shown)
VH: QQLLESGGGLVQPGGSLRLSCAASGFSLSSYAMSWVRQAPGKGLEWVGYIWSGGSTDYADSVKGRFTISRDNSKNTLYLQMNSLRAEDTAVYYCARRYGTSYPDYGDANGFDPWGQGTLVTVSS
VL: B1 VL with D1A, I2Y
As to B4, the koff came to 0.00565 s⁻¹.

B5: 2/99 VH18/VL3 (antibody, V domains shown)
VH: QVQLQESGPGLVKPSQTLSLTCTVSGFSLSSYAMSWIRQHPGKGLEWIGYIWSGGSTDYAPSLKSRVTISVDTSKNQFSLKLSSVTAADTAVYYCARRYGTSYPDYGDANGFDPWGQGTLVTVSS
VL: B1 VL with D1A, I2Y
Consider B5, for which the koff turned out to be 0.00665 s⁻¹.

B6: 2/99 VH2/VL3 (antibody, V domains shown)
VH: EVQLVETGGGLIQPGGSLRLSCAASGFSLSSYAMSWVRQAPGKGLEWVGYIWSGGSTDYADSVKGRFTISRDNSKNTLYLQMNSLRAEDTAVYYCARRYGTSYPDYGDANGFDPWGQGTLVTVSS
VL: B1 VL with D1A, I2Y
On to B6, for which the koff came to 0.00384 s⁻¹.

B7: 2/99 VH17/VL3 (antibody, V domains shown)
VH: B1 VH with S2Q, M3L, Q15E, I36V, H39P, A59N, V70K, F77V, Q116P
VL: B1 VL with D1A, I2Y
Turning to B7, the koff worked out at 0.000843 s⁻¹.

B8: 2/99 VH1/VL4 (antibody, V domains shown)
VH: B4 VH with Q1V, L4V, S6T, V11I
VL: B1 VL with D1A, I2Y, N34S
Turning to B8, the koff was 0.00256 s⁻¹.

B9: 2/99 VH9/VL3 (antibody, V domains shown)
VH: B4 VH with S27T, L28F, R96K
VL: B1 VL with D1A, I2Y
As to B9, the koff is 0.00417 s⁻¹.

B10: 2/99 VH15/VL3 (antibody, V domains shown)
VH: B1 VH with S2Q, M3L, Q15E, I36V, H39P, A59N, F77V
VL: B1 VL with D1A, I2Y
As for B10, the koff is 0.00207 s⁻¹.

B11: 2/99 VH5/VL3 (antibody, V domains shown)
VH: B4 VH with Q2S, L3M, L4E, S6T, V11I, Q116P
VL: B1 VL with D1A, I2Y
As to B11, the koff is 0.00316 s⁻¹.

B12: 2/99 VH2/VL4 (antibody, V domains shown)
VH: B6 VH
VL: B1 VL with D1A, I2Y, N34S
As to B12, the koff was 0.00263 s⁻¹.

B13: 2/99 VH7/VL3 (antibody, V domains shown)
VH: B4 VH with L4V, S6T, V11I, V47I, D60S, S61W, V62A
VL: B1 VL with D1A, I2Y
For B13, the koff came to 0.00145 s⁻¹.

B14: 2/99 VH8/VL3 (antibody, V domains shown)
VH: QQLVETGGGLIQPGGSLRLSCAASGFSLSSYAMSWVRQAPGKGLEWIGYIWSGGSTDYASWAKGRFTISKTSTTLYLQMNSLRAEDTAVYYCARRYGTSYPDYGDANGFDPWGQGTLVTVSS
VL: B1 VL with D1A, I2Y
Take B14: the koff stood at 0.001 s⁻¹.

B15: 2/99 VH21/VL2 (antibody, V domains shown)
VH: B1 VH with P60S, S61W, L62A, F77V
VL: B1 VL
With B15, the koff turned out to be 0.00138 s⁻¹.

B16: 2/99 VH21/VL3 (antibody, V domains shown)
VH: B1 VH with P60S, S61W, L62A, F77V
VL: B1 VL with D1A, I2Y
In the case of B16, the koff was determined as 0.00194 s⁻¹.

B17: 2/99 VH22/VL3 (antibody, V domains shown)
VH: B1 VH with I36V, P60S, S61W, L62A, F77V
VL: B1 VL with D1A, I2Y
With B17, the koff came out at 0.00143 s⁻¹.

B18: 2/99 VH6/VL3 (antibody, V domains shown)
VH: B4 VH with L4V, S6T, V11I, V47I
VL: B1 VL with D1A, I2Y
B18: the koff is 0.00282 s⁻¹.

B19: 2/99 VH1/VL3 (antibody, V domains shown)
VH: B4 VH with Q1V, L4V, S6T, V11I
VL: B1 VL with D1A, I2Y
On to B19, for which the koff amounted to 0.00431 s⁻¹.

B20: 2/99 VH19/VL3 (antibody, V domains shown)
VH: B1 VH
VL: B1 VL with D1A, I2Y
As to B20, the koff was determined as 0.001 s⁻¹.

B21: 2/99 VH13/VL3 (antibody, V domains shown)
VH: B5 VH with Q16E, H40P, A60N, F78V
VL: B1 VL with D1A, I2Y
As to B21, the koff was 0.00277 s⁻¹.

B22: 2/99 VH20/VL2 (antibody, V domains shown)
VH: B1 VH with F77V
VL: B1 VL
Turning to B22, the off-rate constant (koff) stood at 0.00525 s⁻¹.

B23: 2/99 VH22/VL2 (antibody, V domains shown)
VH: B1 VH with I36V, P60S, S61W, L62A, F77V
VL: B1 VL
Take B23: the koff stood at 0.00126 s⁻¹.

B24: 2/99 VH20/VL3 (antibody, V domains shown)
VH: B1 VH with F77V
VL: B1 VL with D1A, I2Y
As to B24, the koff was 0.00715 s⁻¹.

B25: 2/99 VH12/VL3 (antibody, V domains shown)
VH: B5 VH with Q16E, H40P, A60N
VL: B1 VL with D1A, I2Y
Take B25: the koff is 0.00586 s⁻¹.
